Measurements: patent US8450280B2, “Activation of peptide prodrugs by hK2” (GenbSpera, Inc., priority 1999, dated 2013)
Non-standard residues stand in square brackets, D forms with d. No end group written: not given here.

What was measured:
hK2 = molecular target: T1, hK2 (Homo sapiens, UniProt P20151); assay: Hydrolysis of hK2 substrates by hK2; assay type: biochemical; settings: Table 5; hK2 1 μg/ml, 50 mM Tris, 0.1 M NaCl, pH 7.8
T1 construct: made in house
Procedure: (§1) Hydrolyses of particular hK2 substrates were carried out at a hK2 concentrations of 1 μg/ml in 50 mM Tris buffer, with 0.1 M NaCl, at pH 7.8. Serum hydrolysis measurements were carried out in 50% fresh human serum in 50 mM Tris buffer, with 0.1 M NaCl, at pH 7.8. The single letter amino acid code was used to designate the peptide sequences used for Table 4. The units FU are arbitrary fluorescence units. The entries “U.D.” were for measurements of less than 0.01 FU/hour.

[1] = Serum hydrolysis of hK2 substrates; assay type: in vitro ADME; settings: Table 5; 50% fresh human serum in 50 mM Tris, 0.1 M NaCl, pH 7.8
Procedure: as §1

T1 sequence (P20151 25-261): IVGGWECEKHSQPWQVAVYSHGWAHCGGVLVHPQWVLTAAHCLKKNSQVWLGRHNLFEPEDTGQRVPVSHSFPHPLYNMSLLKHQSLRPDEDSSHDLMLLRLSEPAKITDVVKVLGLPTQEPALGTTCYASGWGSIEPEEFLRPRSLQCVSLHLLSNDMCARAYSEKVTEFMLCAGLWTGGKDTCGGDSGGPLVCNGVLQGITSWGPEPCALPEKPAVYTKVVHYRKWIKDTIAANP

Substance	hK2 Hydrolysis Rate (hK2) [FU/hr/m]	Serum Hydrolysis Rate [1]
SEQ ID NO: 98: hK2 substrate peptide, single letter sequence P6-P′1 (GGAKRRL; listed as Homo sapiens)	2773.0	0.02 FU/hr
SEQ ID NO: 99: hK2 substrate peptide, single letter sequence P7-P′1 (GHEQKRRS; listed as Homo sapiens)	2638.5	UD (The entries “U.D.” were for measurements of less than 0.01 FU/hour)
SEQ ID NO: 100: hK2 substrate peptide, single letter sequence P6-P′1 (GGKKRRL; listed as Homo sapiens)	2583.0	UD (The entries “U.D.” were for measurements of less than 0.01 FU/hour)
SEQ ID NO: 101: hK2 substrate peptide, single letter sequence P6-P′1 (GGHKRRL; listed as Homo sapiens)	2428.4	UD (The entries “U.D.” were for measurements of less than 0.01 FU/hour)
SEQ ID NO: 102: hK2 substrate peptide, single letter sequence P6-P′1 (GGKAFRL; listed as Homo sapiens)	2374.2	0.07 FU/hr
SEQ ID NO: 103: hK2 substrate peptide, single letter sequence P7-P′1 (GAEQKRRL; listed as Homo sapiens)	2325.8	0.10 FU/hr
SEQ ID NO: 104: hK2 substrate peptide, single letter sequence P6-P′1 (GGKAQRL; listed as Homo sapiens)	2233.7	0.04 FU/hr
SEQ ID NO: 105: hK2 substrate peptide, single letter sequence P6-P′1 (GGKARRL; listed as Homo sapiens)	2171.2	UD (The entries “U.D.” were for measurements of less than 0.01 FU/hour)
SEQ ID NO: 106: hK2 substrate peptide, single letter sequence P6-P′1 (GGKQRRL; listed as Homo sapiens)	2171.2	0.02 FU/hr
SEQ ID NO: 107: hK2 substrate peptide, single letter sequence P6-P′1 (GGKHRRL; listed as Homo sapiens)	2079.2	UD (The entries “U.D.” were for measurements of less than 0.01 FU/hour)
SEQ ID NO: 108: hK2 substrate peptide, single letter sequence P7-P′1 (GHEQARRL; listed as Homo sapiens)	1956.4	0.14 FU/hr
SEQ ID NO: 109: hK2 substrate peptide, single letter sequence P6-P′1 (GGKAKRL; listed as Homo sapiens)	1788.9	0.14 FU/hr
SEQ ID NO: 110: hK2 substrate peptide, single letter sequence P7-P′1, dL at P′1 (GHEQKRR[dL]; listed as Homo sapiens)	1690.9	0.15 FU/hr
SEQ ID NO: 111: hK2 substrate peptide, single letter sequence P6-P′1 (GGKARRS; listed as Homo sapiens)	1609.6	UD (The entries “U.D.” were for measurements of less than 0.01 FU/hour)
SEQ ID NO: 112: hK2 substrate peptide, single letter sequence P6-P′1 (GGKARKL; listed as Homo sapiens)	1602.4	UD (The entries “U.D.” were for measurements of less than 0.01 FU/hour)
SEQ ID NO: 113: hK2 substrate peptide, single letter sequence P7-P′1 (GHEQKRRE; listed as Homo sapiens)	1473.8	UD (The entries “U.D.” were for measurements of less than 0.01 FU/hour)
SEQ ID NO: 114: hK2 substrate peptide, single letter sequence P6-P′1 (GGKAHRL; listed as Homo sapiens)	1287.4	0.10 FU/hr
SEQ ID NO: 115: hK2 substrate peptide, single letter sequence P6-P′1 (GGKANRL; listed as Homo sapiens)	1113.9	0.01 FU/hr
SEQ ID NO: 116: hK2 substrate peptide, single letter sequence P6-P′1 (GGKARQL; listed as Homo sapiens)	1021.9	0.13 FU/hr
SEQ ID NO: 117: hK2 substrate peptide, single letter sequence P6-P′1 (GGKARHL; listed as Homo sapiens)	939.3	UD (The entries “U.D.” were for measurements of less than 0.01 FU/hour)
SEQ ID NO: 118: hK2 substrate peptide, single letter sequence P6-P′1 (GGKARNL; listed as Homo sapiens)	828.4	0.25 FU/hr
SEQ ID NO: 119: hK2 substrate peptide, single letter sequence P6-P′1, dR at P2 (GGKA[dR]RL; listed as Homo sapiens)	494.4	0.06 FU/hr
SEQ ID NO: 120: hK2 substrate peptide, single letter sequence P6-P′1 (GGKAKKL; listed as Homo sapiens)	77.9	UD (The entries “U.D.” were for measurements of less than 0.01 FU/hour)
SEQ ID NO: 121: hK2 substrate peptide, single letter sequence P6-P′1 (GGKAHKL; listed as Homo sapiens)	73.2	UD (The entries “U.D.” were for measurements of less than 0.01 FU/hour)
SEQ ID NO: 123: hK2 substrate peptide, single letter sequence P6-P′1, dR at P2 and P1 (GGKA[dR][dR]L; listed as Homo sapiens)	16.5	UD (The entries “U.D.” were for measurements of less than 0.01 FU/hour)
